We go through 2 molecules from patent publication US10596234B2, “Compositions and methods to inhibit viral replication” (priority 2016, dated 2020).

Data set [1] relates to cGAS. Briefly: In vitro deamidation assay (cGAS). The data set is classed as biochemical, mouse. The note with it: purified proteins. On the procedure:
The in vitro deamidation assay was performed as previously described. Briefly, 5 μg of purified MBP-mcGAS or MBP-mcGAS-DDEE mutant on amylose resin was incubated with 0.5 gig of purified FLAG-UL37 or FLAG-UL37C819S at 30° C. for 45 min in deamidation buffer (50 mM Tris-HCl [pH 7.5], 100 mM NaCl, and 5 mM MgCl2). Then the reaction was stopped by adding rehydration buffer and the eluted proteins were analyzed by two-dimensional gel electrophoresis.

Data set [2] deals with cGAS. Briefly: Real-time PCR in THP-1 cells stably expressing UL37, transfected with HT-DNA. Particulars: THP-1 stable cell lines. The data set is classed as cell-based, human. On the procedure:
THP-1 or L929 cells were infected with HSV-1 (MOI=5) or stimulated with HT-DNA (2 μg/ml) or cGAMP (2 μg/ml) for 6 h unless specifically indicated otherwise. Cells were washed with cold PBS, and total RNA was extracted by using TRIzol Reagent (Invitrogen). RNA was digested with DNase I (New England Biolabs) to remove genomic DNA. One microgram of total RNA was used for reverse transcription with PrimeScript Reverse Transcriptase (Clontech) according to the manufacturer's instruction. Approximately 0.5% of the cDNA was used as template in each quantitative real-time PCR (qRT-PCR) reaction with SYBR master mix (Applied biosystems).
Lentivirus production was carried out in 293T cells as described previously. THP-1 or L929 cells were infected with lentivirus containing UL37 or UL37 C819S mutant. After 36 h, THP-1 cells were selected with puromycin at 1 μg/ml and L929 cells were selected with puromycin at 5 μg/ml.

The target in data set [3] is T1, cGAS (Mus musculus, UniProt Q8C6L5).
T1 construct: Purified mcGAS(141-507) was deamidated by purified FLAG-UL37 in vitro; made in house; host or cells: E. coli BL21 (DE3)
T1 sequence (Q8C6L5 141-507): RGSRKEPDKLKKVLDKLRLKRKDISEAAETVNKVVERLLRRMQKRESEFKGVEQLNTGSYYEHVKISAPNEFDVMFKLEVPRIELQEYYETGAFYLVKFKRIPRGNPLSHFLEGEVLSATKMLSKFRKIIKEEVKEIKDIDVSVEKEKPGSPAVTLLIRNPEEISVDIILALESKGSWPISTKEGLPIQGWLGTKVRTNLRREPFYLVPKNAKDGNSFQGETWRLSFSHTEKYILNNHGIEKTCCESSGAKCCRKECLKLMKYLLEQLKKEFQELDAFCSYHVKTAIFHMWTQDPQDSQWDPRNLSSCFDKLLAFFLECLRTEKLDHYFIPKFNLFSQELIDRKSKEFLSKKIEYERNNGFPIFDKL
Briefly: In vitro cGAMP activity assay. Particulars: in vitro cGAMP reaction. The data set is classed as biochemical. On the procedure: 1 μM of MBP-cGAS or mutant proteins was mixed with 100 μM ATP and 100 μM GTP and 10 μCi [α-P32]-ATP in reaction buffer (20 mM Tris-Cl [pH 7.5], 150 mM NaCl, 5 mM MgCl2, 1 mM dithiothreitol [DTT]). After 2 h of incubation at 37° C., 2 μl of reaction solution was spotted onto PEI-Cellulose thin layer chromatography plate (Sigma). Reaction products were resolved with running buffer (1 M (NH4)2SO4, 1.5 M KH2PO4, pH 3.8). The TLC plates were dried and scanned with Phosphoimager (Fuji).

Data set [4] deals with cGAS. Description: cGAMP reporter assay (THP1-Lucia). In kind it is cell-based, human. The note with it: THP-1 cells transfected with HT-DNA (HT-DNA alone approximately 60 ng). On the procedure: THP-1 Cells were transfected with HT-DNA (2 μg/ml) or infected with HSV-1 virus for 6 h. Cell extracts were prepared by heating at 95° C. for 5 min to denature most proteins, and then the precipitated proteins were removed by centrifugation. The supernatant containing cGAMP was delivered to digitonin-permeabilized (2.5 μg/ml for 30 min) THP1-Lucia cells at 37° C. for 30 min. The cells were cultured for another 20 h before Lucia reporter activity was measured according to the manufacturer's instruction (InvivoGen). Pure cGAMP was diluted and used as standard for the assay.

For data set [5], the system named is PRDIII promoter. Description: Dual-luciferase reporter assay (PRDIII, SeV infection). In kind it is cell-based, human. The note with it: 293T cells, SeV 100 HAU/ml. On the procedure: HEK293T cells, seeded in 24-well plates (˜50% cell density), were transfected with IFN-β, PRDIII (ISRE) or NF-κB reporter plasmid cocktail (50 ng of luciferase reporter plasmid and 5 ng of pRL Renilla luciferase control vector) and expression plasmid (empty plasmid, one or multiple plasmids depending on the experiment) by calcium phosphate precipitation. Cells were infected with SeV (100 HA/ml), HSV-1 for 16 h, transfected with Poly [I:C] for 16 h or directly harvested 30-36 h post transfection. Whole cell lysates were used to determine the activity of firefly luciferase and renilla luciferase by a microplate reader (FLUOstar Omega).

Data set [6] deals with RIG-I. Briefly: Gel filtration of purified RIG-I (oligomerization). The data set is classed as cell-based, human. Particulars: cells infected with HSV-1, 4 h. On the procedure: Virus-infected HEK293T/Flag-RIG-I or HeLa/Flag-RIG-I stable cells were harvested and lysed in cold Triton X-100 buffer (20 mM Tris, pH 7.5, 150 mM NaCl, 1.5 mM MgCl2, 20 mM β-glycerophosphate, 1 mM sodium orthovanadate, 10% glycerol, 0.5 mM EGTA, 0.5% Triton X-100, 1 mM PMSF and 10 μg/ml leupeptin). Centrifuged supernatant was filtered and subjected to incubation with anti-Flag-conjugated agarose beads for 2 h at 4° C. Beads were then extensively washed and proteins were eluted with 3× Flag peptide at 0.2 mg/ml.
Gel filtration with superose 6 was performed as described previously. Briefly, eluted proteins (200-300 μl) were loaded to superose 6 column and subjected to gel filtration analysis with Buffer B (20 mM Tris-HCl, pH 7.6, 150 mM NaCl, 1 mM EDTA, 0.5 mM EGTA, 0.5% Triton X-100, 20 mM NaF, 20 mM β-glycerophosphate, 1 mM Na3VO4, 2.5 mM metabisulphite [sodium salt], 5 mM benzamidine). Elution was collected in 0.5 ml fractions and aliquots of fractions were analyzed by immunoblotting.

The test system of data set [7] is IFN-β and RANTES. Description: Cytokine ELISA, HEK293 RIG-I stable cell lines infected with HSV-1. The data set is classed as cell-based, human. Particulars: HSV-1-infected cells, supernatant at 16 hpi. On the procedure:
Commercial cytokine ELISA kits used in this study include: human IFN-β (PBL Assay Science) and human RANTES (R&D Systems). Cytokine levels in the supernatant from cultured cells were assessed according to manufacturer's instruction. Absorbance was determined with FLUOstar Omega (BMG Labtech.).

The subject of data set [8] is RIG-I. Description: Two-dimensional gel electrophoresis of RIG-I deamidation in cells. The data set is classed as cell-based, human. The note with it: 2-DGE and immunoblotting. On the procedure:
Cells (1×10^6) were lysed in 150 μl rehydration buffer (8 M Urea, 2% CHAPS, 0.5% IPG Buffer, 0.002% bromophenol blue) by three pulses of sonication and whole cell lysates were centrifuged at 20,000 g for 15 min. Supernatants were loaded to IEF strips for focusing with a program comprising: 20 V, 10 h (rehydration); 100 V, 1 h; 500 V, 1 h; 1000 V, 1 h; 2000 V, 1 h; 4000 V, 1 h; 8000 V, 4 h. After IEF, strips were incubated with SDS equilibration buffer (50 mM Tris-HCl [pH8.8], 6 M urea, 30% glycerol, 2% SDS, 0.001% Bromophenol Blue) containing 10 mg/ml DTT for 15 min and then SDS equilibration buffer containing 2-iodoacetamide for 15 min. Strips were washed with SDS-PAGE buffer, resolved by SDS-PAGE, and analyzed by immunoblotting.

The subject of data set [9] is HSV-1. Description: HSV-1 plaque assay in HEK293 cells stably expressing RIG-I wild-type or mutants. In kind it is cell-based. The note with it: HEK293 stable cells, HSV-1 MOI=0.5.

As for UL37C819S, the “cGAS deamidation in vitro (2DGE shift)” value in data set [1] is “failed to do so”. Further, the “effect on expression of IFNB1, ISG56 and CXCL10 induced by HT-DNA” value in data set [2] is “no detectable effect on IFNB1 and ISG56 expression”. Moreover, in [3], the “effect of added UL37 on cGAS-mediated cGAMP production” value is on record as “less, albeit still significant, inhibition of cGAMP production”. Further, in data set [4], the “intracellular cGAMP” value is ~85 ng per one million THP-1 cells. Besides, in [5], the “blockade of SeV-induced PRDIII promoter activation” value was “greatly impaired blockade of PRDIII induction by SeV”.

B1: RIG-I-QQ (protein)
chain: MTTEQRRSLQAFQDYIRKTLDPTYILSYMAPWFREEEVQYIQAEKNNKGPMEAATLFLKFLLELQEEGWFRGFLDALDHAGYSGLYEAIESWDFKKIEKLEEYRLLLKRLQPEFKTRIIPTDIISDLSECLINQECEEILQICSTKGMMAGAEKLVECLLRSDKENWPKTLKLALEKERNKFSELWIVEKGIKDVETEDLEDKMETSDIQIFYQEDPECQNLSENSCPPSEVSDTNLYSPFKPRNYQLELALPAMKGKNTIICAPTGCGKTFVSLLICEHHLKKFPQGQKGKVVFFANQIPVYEQQKSVFSKYFERHGYRVTGISGATAENVPVEQIVENNDIIILTPQILVNNLKKGTIPSLSIFTLMIFDECHNTSKQHPYNMIMFNYLDQKLGGSSGPLPQVIGLTASVGVGDAKNTDEALDYICKLCASLDASVIATVKHNLEELEQVVYKPQKFFRKVESRISDKFKYIIAQLMRDTESLAKRICKDLEQLSQIQNREFGTQKYEQWIVTVQKACMVFQMPDKDEESRICKALFLYTSHLRKYQDALIISEHARMKDALDYLKDFFSNVRAAGFEEIEQDLTQRFEEKLQELESVSRDPSNENPKLEDLCFILQEEYHLNPETITILFVKTRALVDALKNWIEGNPKLSFLKPGILTGRGKTNQNTGMTLPAQKCILDAFKASGDHNILIATSVADEGIDIAQCNLVILYEYVGNVIKMIQTRGRGRARGSKCFLLTSNAGVIEKEQINMYKEKMMNDSILRLQTWDEAVFREKILHIQTHEKFIRDSQEKPKPVPDKENKKLLCRKCKALACYTADVRVIEECHYTVLGDAFKECFVSRPHPKPKQFSSFEKRAKIFCARQNCSHDWGIHVKYKTFEIPVIKIESFVVEDIATGVQTLYSKWKDFHFEKIPFDPAEMSK
With B1, the “size of RIG-I elution fractions (oligomerization)” value in data set [6] is 440-670 kDa. Also, the “IFN-β and RANTES in supernatant” value in data set [7] is “Increased IFN-β and RANTES expression”. Moreover, the “charge shift of RIG-I (deamidation) upon UL37 expression or recombinant HSV-1 infection” value in [8] was “deamidation-resistant”. Besides, the “reduction of HSV-1 replication / titer” value in [9] is 75-90%.
